{"source": "patent US20060259987A1", "assay_in_all_cases": "cell-based or functional assay", "key": {"factor Xa (human)": {"target": "factor Xa (human) (UniProt P00742)"}, "thrombin (human)": {"target": "thrombin (human) (UniProt P00734)"}, "[1]": {"target": "human neutrophil cathepsin G (human) (UniProt P08311)", "sequence (P08311 21-244 limits assumed)": "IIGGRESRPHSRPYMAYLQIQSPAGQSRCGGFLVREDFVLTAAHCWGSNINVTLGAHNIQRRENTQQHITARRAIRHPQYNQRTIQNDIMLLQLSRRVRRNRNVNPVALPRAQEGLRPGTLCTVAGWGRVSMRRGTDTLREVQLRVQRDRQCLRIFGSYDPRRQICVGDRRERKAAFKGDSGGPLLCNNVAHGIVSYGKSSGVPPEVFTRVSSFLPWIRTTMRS"}, "[2]": {"target": "human neutrophil elastase (human) (UniProt P08246)", "sequence (P08246 30-247 limits assumed)": "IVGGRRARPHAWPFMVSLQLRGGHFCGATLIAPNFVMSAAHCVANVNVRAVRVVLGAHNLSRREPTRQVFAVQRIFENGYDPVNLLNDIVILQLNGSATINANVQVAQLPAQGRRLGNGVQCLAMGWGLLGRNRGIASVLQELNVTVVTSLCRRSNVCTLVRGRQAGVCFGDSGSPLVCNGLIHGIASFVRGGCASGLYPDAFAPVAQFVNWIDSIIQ"}}, "note": "Read-outs that look alike come from different tables or passages of the source."}
{"substance": "ATIII N135A (from UniProt P01008 33-464)", "values": [{"measurement": "IC50 fXa/UFH; HCA #2", "setting": "factor Xa (human)", "value": 0.017, "unit": "µM"}, {"measurement": "rsd. Xa catG; CA #8; stg1 conc 200", "setting": "factor Xa (human)", "value": 1, "unit": "%"}, {"measurement": "rsd. Xa catG; CA #8; stg1 conc 200 (% of no-ATIII control)", "setting": "factor Xa (human)", "value": 1}, {"measurement": "rsd. Xa catG; CA #9; stg1 conc 200", "setting": "factor Xa (human)", "value": 1, "unit": "%"}, {"measurement": "rsd. Xa catG; CA #9; stg1 conc 200 (% of no-ATIII control)", "setting": "factor Xa (human)", "value": 1}, {"measurement": "rsd. Xa hne; CA #8; stg1 conc 200", "setting": "factor Xa (human)", "value": 90, "unit": "%"}, {"measurement": "rsd. Xa hne; CA #8; stg1 conc 200 (% of no-ATIII control)", "setting": "factor Xa (human)", "value": 90}, {"measurement": "rsd. Xa hne; CA #9; stg1 conc 200", "setting": "factor Xa (human)", "value": 106, "unit": "%"}, {"measurement": "rsd. Xa hne; CA #9; stg1 conc 200 (% of no-ATIII control)", "setting": "factor Xa (human)", "value": 106}, {"measurement": "rsd. Xa no add; CA #8; stg1 conc 200", "setting": "factor Xa (human)", "value": 1, "unit": "%"}, {"measurement": "rsd. Xa no add; CA #8; stg1 conc 200 (% of no-ATIII control)", "setting": "factor Xa (human)", "value": 1}, {"measurement": "rsd. Xa no add; CA #9; stg1 conc 200 (% of no-ATIII control)", "setting": "factor Xa (human)", "value": 2}, {"measurement": "IC50 fXa/UFH; HCA #2", "setting": "factor Xa (human); record 2", "value": 0.017, "unit": "µM"}, {"measurement": "rsd. IIa catG; CA #8; stg1 conc 200", "setting": "thrombin (human)", "value": 0, "unit": "%"}, {"measurement": "rsd. IIa catG; CA #8; stg1 conc 200 (% of no-ATIII control)", "setting": "thrombin (human)", "value": 0}, {"measurement": "rsd. IIa catG; CA #9; stg1 conc 200", "setting": "thrombin (human)", "value": 2, "unit": "%"}, {"measurement": "rsd. IIa catG; CA #9; stg1 conc 200 (% of no-ATIII control)", "setting": "thrombin (human)", "value": 2}, {"measurement": "rsd. IIa hne; CA #8; stg1 conc 200", "setting": "thrombin (human)", "value": 90, "unit": "%"}, {"measurement": "rsd. IIa hne; CA #8; stg1 conc 200 (% of no-ATIII control)", "setting": "thrombin (human)", "value": 90}, {"measurement": "rsd. IIa hne; CA #9; stg1 conc 200", "setting": "thrombin (human)", "value": 100, "unit": "%"}, {"measurement": "rsd. IIa hne; CA #9; stg1 conc 200 (% of no-ATIII control)", "setting": "thrombin (human)", "value": 100}, {"measurement": "rsd. IIa no add; CA #8; stg1 conc 200", "setting": "thrombin (human)", "value": 1, "unit": "%"}, {"measurement": "rsd. IIa no add; CA #8; stg1 conc 200 (% of no-ATIII control)", "setting": "thrombin (human)", "value": 1}, {"measurement": "rsd. IIa no add; CA #9; stg1 conc 200", "setting": "thrombin (human)", "value": 2, "unit": "%"}, {"measurement": "rsd. IIa no add; CA #9; stg1 conc 200 (% of no-ATIII control)", "setting": "thrombin (human)", "value": 2}]}
{"substance": "ATIII S137A (from UniProt P01008 33-464)", "values": [{"measurement": "IC50 fXa/UFH; HCA #4", "setting": "factor Xa (human)", "value": 0.012, "unit": "µM"}, {"measurement": "rsd. Xa catG; CA #6; stg1 conc 200 (% of no-ATIII control)", "setting": "factor Xa (human)", "value": 0}, {"measurement": "rsd. Xa catG; CA #13; stg1 conc 200 (% of no-ATIII control)", "setting": "factor Xa (human)", "value": 1}, {"measurement": "rsd. Xa hne; CA #6; stg1 conc 200 (% of no-ATIII control)", "setting": "factor Xa (human)", "value": 81}, {"measurement": "rsd. Xa hne; CA #13; stg1 conc 200 (% of no-ATIII control)", "setting": "factor Xa (human)", "value": 87}, {"measurement": "rsd. Xa no add; CA #6; stg1 conc 200 (% of no-ATIII control)", "setting": "factor Xa (human)", "value": 0}, {"measurement": "rsd. Xa no add; CA #13; stg1 conc 200 (% of no-ATIII control)", "setting": "factor Xa (human)", "value": 2}, {"measurement": "IC50 IIa/UFH; HCA #4", "setting": "thrombin (human)", "value": 0.013, "unit": "µM"}, {"measurement": "rsd. IIa catG; CA #6; stg1 conc 200 (% of no-ATIII control)", "setting": "thrombin (human)", "value": 0}, {"measurement": "rsd. IIa catG; CA #13; stg1 conc 200 (% of no-ATIII control)", "setting": "thrombin (human)", "value": 1}, {"measurement": "rsd. IIa hne; CA #6; stg1 conc 200 (% of no-ATIII control)", "setting": "thrombin (human)", "value": 81}, {"measurement": "rsd. IIa hne; CA #13; stg1 conc 200 (% of no-ATIII control)", "setting": "thrombin (human)", "value": 89}, {"measurement": "rsd. IIa no add; CA #6; stg1 conc 200 (% of no-ATIII control)", "setting": "thrombin (human)", "value": 0}, {"measurement": "rsd. IIa no add; CA #13; stg1 conc 200 (% of no-ATIII control)", "setting": "thrombin (human)", "value": 4}]}
{"substance": "human plasma-derived ATIII (from UniProt P01008 33-464)", "values": [{"measurement": "IC50 fXa/UFH; HCA #4", "setting": "factor Xa (human)", "value": 0.013, "unit": "µM"}, {"measurement": "rsd. Xa catG; CA #12; stg1 conc 200 (% of no-ATIII control)", "setting": "factor Xa (human)", "value": 1}, {"measurement": "rsd. Xa catG; CA #17; stg1 conc 3 (% of no-ATIII control)", "setting": "factor Xa (human)", "value": 77}, {"measurement": "rsd. Xa catG; CA #17; stg1 conc 7 (% of no-ATIII control)", "setting": "factor Xa (human)", "value": 12}, {"measurement": "rsd. Xa catG; CA #17; stg1 conc 23 (% of no-ATIII control)", "setting": "factor Xa (human)", "value": -7}, {"measurement": "rsd. Xa hne; CA #14; stg1 conc 200 (% of no-ATIII control)", "setting": "factor Xa (human)", "value": 101}, {"measurement": "rsd. Xa hne; CA #17; stg1 conc 23 (% of no-ATIII control)", "setting": "factor Xa (human)", "value": 98}, {"measurement": "rsd. Xa no add; CA #17; stg1 conc 1 (% of no-ATIII control)", "setting": "factor Xa (human)", "value": 90}, {"measurement": "rsd. Xa no add; CA #17; stg1 conc 3 (% of no-ATIII control)", "setting": "factor Xa (human)", "value": 75}, {"measurement": "rsd. Xa no add; CA #17; stg1 conc 23 (% of no-ATIII control)", "setting": "factor Xa (human)", "value": 1}]}
{"substance": "plasma-derived ATIII (from UniProt P01008 33-464)", "values": [{"measurement": "IC50 fXa/UFH; HCA #4", "setting": "factor Xa (human)", "value": 0.013, "unit": "µM"}, {"measurement": "rsd. Xa catG; CA #12; stg1 conc 200", "setting": "factor Xa (human)", "value": 1, "unit": "%"}, {"measurement": "rsd. Xa catG; CA #17; stg1 conc 3", "setting": "factor Xa (human)", "value": 77, "unit": "%"}, {"measurement": "rsd. Xa catG; CA #17; stg1 conc 7", "setting": "factor Xa (human)", "value": 12, "unit": "%"}, {"measurement": "rsd. Xa catG; CA #17; stg1 conc 23", "setting": "factor Xa (human)", "value": -7, "unit": "%"}, {"measurement": "rsd. Xa hne; CA #14; stg1 conc 200", "setting": "factor Xa (human)", "value": 101, "unit": "%"}, {"measurement": "rsd. Xa hne; CA #17; stg1 conc 23", "setting": "factor Xa (human)", "value": 98, "unit": "%"}, {"measurement": "rsd. Xa no add; CA #17; stg1 conc 1", "setting": "factor Xa (human)", "value": 90, "unit": "%"}, {"measurement": "rsd. Xa no add; CA #17; stg1 conc 3", "setting": "factor Xa (human)", "value": 75, "unit": "%"}, {"measurement": "rsd. Xa no add; CA #17; stg1 conc 23", "setting": "factor Xa (human)", "value": 1, "unit": "%"}, {"measurement": "IC50 fXa/UFH; HCA #4", "setting": "factor Xa (human); record 2", "value": 0.013, "unit": "µM"}, {"measurement": "rsd IIa, catG (CA #14, stg 1 conc 200)", "setting": "[1]", "value": 1, "unit": "%"}, {"measurement": "halflife, min (HNE/hep)", "setting": "[2]", "value": 2.9, "unit": "min"}, {"measurement": "rsd IIa, HNE (CA #14, stg 1 conc 200)", "setting": "[2]", "value": 100, "unit": "%"}, {"measurement": "rsd Xa, HNE (CA #14, stg 1 conc 200)", "setting": "[2]", "value": 101, "unit": "%"}]}
